These results are taken from the supplement of paper PMC5998384.

The subject of data set [1] is HeLa Kyoto. In words: solubility in G1/S (NP-40 vs SDS abundance) (log2 ratio); higher = more soluble. The settings on record: cell cycle stage: G1/S.
The subject of data set [2] is HeLa Kyoto. In words: melting temperature (median over replicates), in situ; higher = more thermally stable.
Data set [3] deals with HeLa Kyoto. In words: solubility change mitosis vs G1/S (difference of NP-40 vs SDS log2 ratios) (log2 ratio difference); higher = more soluble in mitosis.
Data set [4] has as its system HeLa Kyoto. The data set can be described thus: thermal stability score vs G1/S (z-score of summed log2 fold changes over temperatures); higher = more thermally stable than in G1/S.
Where [5] appears, read: cell cycle stage: early G1 (4.5 h after nocodazole release).
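For melting temperature (median over replicates), in situ in this document: HeLa Kyoto cells synchronized by double thymidine or nocodazole block, proteins quantified by TMT10plex mass spectrometry, three independent biological replicates.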
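For solubility change mitosis vs G1/S (difference of NP-40 vs SDS log2 ratios) in this document: synchronized HeLa Kyoto cells (double thymidine block for G1/S, nocodazole release for mitosis), protein amounts in NP-40 versus SDS lysates quantified by mass spectrometry, three biological replicates.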
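For solubility in G1/S (NP-40 vs SDS abundance) in this document: HeLa Kyoto cells arrested at G1/S by double thymidine block, proteins quantified by TMT10plex mass spectrometry in mild NP-40 versus SDS extracts, three biological replicates.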
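For thermal stability score vs G1/S (z-score of summed log2 fold changes over temperatures) in this document: synchronized HeLa Kyoto cells, proteins quantified by TMT10plex mass spectrometry, three biological replicates, mitosis taken 0.5 h after nocodazole release, G1/S directly after double thymidine block.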

ATR, sequence (chain, as listed by the source): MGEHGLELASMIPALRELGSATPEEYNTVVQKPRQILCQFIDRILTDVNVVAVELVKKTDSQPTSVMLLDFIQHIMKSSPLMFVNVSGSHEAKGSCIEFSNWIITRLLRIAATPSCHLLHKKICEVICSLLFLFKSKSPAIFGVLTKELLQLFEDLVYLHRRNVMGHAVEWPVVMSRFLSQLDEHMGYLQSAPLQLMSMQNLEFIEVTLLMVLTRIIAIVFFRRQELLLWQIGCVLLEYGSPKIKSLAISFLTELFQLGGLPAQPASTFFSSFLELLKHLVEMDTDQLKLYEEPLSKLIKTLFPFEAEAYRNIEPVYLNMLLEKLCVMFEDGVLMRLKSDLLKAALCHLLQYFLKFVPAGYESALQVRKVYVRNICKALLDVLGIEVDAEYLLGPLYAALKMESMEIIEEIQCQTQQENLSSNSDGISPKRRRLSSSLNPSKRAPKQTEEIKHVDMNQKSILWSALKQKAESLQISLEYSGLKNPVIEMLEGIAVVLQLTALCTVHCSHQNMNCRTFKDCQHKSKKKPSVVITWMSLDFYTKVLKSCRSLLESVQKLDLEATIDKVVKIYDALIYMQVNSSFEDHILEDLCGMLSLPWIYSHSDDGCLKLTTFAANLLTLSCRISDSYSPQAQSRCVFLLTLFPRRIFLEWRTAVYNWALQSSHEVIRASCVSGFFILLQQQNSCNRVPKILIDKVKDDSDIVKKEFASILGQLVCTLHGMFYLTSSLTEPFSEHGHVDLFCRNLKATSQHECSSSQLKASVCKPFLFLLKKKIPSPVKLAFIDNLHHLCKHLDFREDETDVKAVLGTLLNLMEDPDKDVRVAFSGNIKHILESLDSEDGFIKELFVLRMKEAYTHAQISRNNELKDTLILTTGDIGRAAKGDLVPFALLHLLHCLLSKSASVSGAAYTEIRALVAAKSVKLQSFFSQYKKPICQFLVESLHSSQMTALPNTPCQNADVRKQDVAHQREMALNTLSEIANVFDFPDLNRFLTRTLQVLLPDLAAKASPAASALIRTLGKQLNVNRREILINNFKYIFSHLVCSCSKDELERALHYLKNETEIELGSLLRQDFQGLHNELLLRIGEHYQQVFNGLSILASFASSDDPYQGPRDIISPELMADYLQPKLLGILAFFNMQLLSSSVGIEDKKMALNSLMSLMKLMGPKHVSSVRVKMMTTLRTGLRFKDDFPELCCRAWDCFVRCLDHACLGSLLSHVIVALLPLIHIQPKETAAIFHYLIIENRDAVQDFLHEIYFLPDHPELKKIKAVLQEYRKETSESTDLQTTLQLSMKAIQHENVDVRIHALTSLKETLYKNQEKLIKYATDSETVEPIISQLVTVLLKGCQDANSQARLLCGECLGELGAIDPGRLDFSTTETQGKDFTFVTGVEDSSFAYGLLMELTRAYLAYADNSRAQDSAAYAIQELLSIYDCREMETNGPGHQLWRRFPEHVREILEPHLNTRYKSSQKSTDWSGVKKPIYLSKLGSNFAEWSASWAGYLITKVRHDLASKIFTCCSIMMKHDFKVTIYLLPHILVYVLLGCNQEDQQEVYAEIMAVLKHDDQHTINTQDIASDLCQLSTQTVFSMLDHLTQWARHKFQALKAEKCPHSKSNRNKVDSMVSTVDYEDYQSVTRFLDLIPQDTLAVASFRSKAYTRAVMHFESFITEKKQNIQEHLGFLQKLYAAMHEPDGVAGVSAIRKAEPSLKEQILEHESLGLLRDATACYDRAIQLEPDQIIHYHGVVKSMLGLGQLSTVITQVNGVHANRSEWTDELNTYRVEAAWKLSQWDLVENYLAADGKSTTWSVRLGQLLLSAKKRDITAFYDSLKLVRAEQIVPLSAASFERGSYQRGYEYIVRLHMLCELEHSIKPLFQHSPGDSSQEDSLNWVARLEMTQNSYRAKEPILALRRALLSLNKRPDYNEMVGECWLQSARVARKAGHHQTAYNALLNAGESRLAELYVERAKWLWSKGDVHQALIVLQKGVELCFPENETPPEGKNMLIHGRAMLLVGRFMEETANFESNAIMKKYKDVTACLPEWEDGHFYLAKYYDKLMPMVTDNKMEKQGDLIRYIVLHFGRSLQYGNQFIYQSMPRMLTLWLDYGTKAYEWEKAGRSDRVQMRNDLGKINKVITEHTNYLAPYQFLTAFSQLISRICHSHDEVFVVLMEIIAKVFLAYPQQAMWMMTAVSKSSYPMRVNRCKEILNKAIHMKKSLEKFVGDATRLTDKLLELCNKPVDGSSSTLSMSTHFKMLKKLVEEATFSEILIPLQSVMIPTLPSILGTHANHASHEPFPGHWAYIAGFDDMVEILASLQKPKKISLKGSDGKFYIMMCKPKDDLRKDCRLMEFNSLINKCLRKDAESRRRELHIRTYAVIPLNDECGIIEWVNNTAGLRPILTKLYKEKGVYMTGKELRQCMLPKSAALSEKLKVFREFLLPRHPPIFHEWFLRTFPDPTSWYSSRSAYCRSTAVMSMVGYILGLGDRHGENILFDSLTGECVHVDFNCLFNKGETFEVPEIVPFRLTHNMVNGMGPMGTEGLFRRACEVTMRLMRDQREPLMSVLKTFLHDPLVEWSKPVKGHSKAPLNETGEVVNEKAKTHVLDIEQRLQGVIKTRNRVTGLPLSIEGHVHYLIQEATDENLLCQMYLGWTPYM

“MSYTGFVQGSETTLQSTYSDTSAQPTCDYGYGTWNSGTNRGYEGYGYGYGYGQDNTTNYGYGMATSHSWEMPSSDTNANTSASGSASADSVLSRINQRLDMVPHLETDMMQGGVYGSGGERYDSYESCDSRAVLSERDLYRSGYDYSELDPEMEMAYEGQYDAYRDQFRMRGNDTFGPRAQGWARDARSGRPMASGYGRMWEDPMGARGQCMSGASRLPSLFSQNIIPEYGMFQGMRGGGAFPGGSRFGFGFGNGMKQMRRTWKTWTTADFRTKKKKRKQGGSPDEPDSKATRTDCSDNSDSDNDEGTEGEATEGLEGTEAVEKGSRVDGEDEEGKEDGREEGKEDPEKGALTTQDENGQTKRKLQAGKKSQDKQKKRQRDRMVERIQFVCSLCKYRTFYEDEMASHLDSKFHKEHFKYVGTKLPKQTADFLQEYVTNKTKKTEELRKTVEDLDGLIQQIYRDQDLTQEIAMEHFVKKVEAAHCAACDLFIPMQFGIIQKHLKTMDHNRNRRLMMEQSKKSSLMVARSILNNKLISKKLERYLKGENPFTDSPEEEKEQEEAEGGALDEGAQGEAAGISEGAEGVPAQPPVPPEPAPGAVSPPPPPPPEEEEEGAVPLLGGALQRQIRGIPGLDVEDDEEGGGGAP [AKAP8L]”: the “solubility in G1/S (log2)” value in the data set on HeLa Kyoto [1] was -0.123. Further, the melting temperature in the data set with HeLa Kyoto [2] (cell cycle stage: G1/S) came to 47.1 °C; in the data set with HeLa Kyoto [2] (cell cycle stage: mitosis), 48.8 °C. Besides, the “solubility change mitosis (log2)” value in the data set on HeLa Kyoto [3] was 0.0856. Also, the thermal stability score in the data set on HeLa Kyoto [4] (setting [5]) came out at 0.782; in the data set on HeLa Kyoto [4] (cell cycle stage: mitosis), 1.54.

With “MTEEACRTRSQKRALERDPTEDDVESKKIKMERGLLASDLNTDGDMRVTPEPGAGPTQGLLRATEATAMAMGRGEGLVGDGPVDMRTSHSDMKSERRPPSPDVIVLSDNEQPSSPRVNGLTTVALKETSTEALMKSSPEERERMIKQLKEELRLEEAKLVLLKKLRQSQIQKEATAQKPTGSVGSTVTTPPPLVRGTQNIPAGKPSLQTSSARMPGSVIPPPLVRGGQQASSKLGPQASSQVVMPPLVRGAQQIHSIRQHSSTGPPPLLLAPRASVPSVQIQGQRIIQQGLIRVANVPNTSLLVNIPQPTPASLKGTTATSAQANSTPTSVASVVTSAESPASRQAAAKLALRKQLEKTLLEIPPPKPPAPEMNFLPSAANNEFIYLVGLEEVVQNLLETQGRMSAATVLSREPYMCAQCKTDFTCRWREEKSGAIMCENCMTTNQKKALKVEHTSRLKAAFVKALQQEQEIEQRLLQQGTAPAQAKAEPTAAPHPVLKQVIKPRRKLAFRSGEARDWSNGAVLQASSQLSRGSATTPRGVLHTFSPSPKLQNSASATALVSRTGRHSERTVSAGKGSATSNWKKTPLSTGGTLAFVSPSLAVHKSSSAVDRQREYLLDMIPPRSIPQSATWK [GATAD2A]”, the “solubility in G1/S (log2)” value with HeLa Kyoto [1] was determined as 0.481. Also, the melting temperature in the data set on HeLa Kyoto [2] (cell cycle stage: G1/S) was 47.3 °C; with HeLa Kyoto [2] (cell cycle stage: mitosis) it was 50.4 °C. Further, the “solubility change mitosis (log2)” value in the data set with HeLa Kyoto [3] came to 0.0452. Further, the results for the thermal stability score with HeLa Kyoto [4] (setting [5]) and with HeLa Kyoto [4] (cell cycle stage: mitosis) were 0.921 and 3.21, respectively.

For the substance ATR, the “solubility in G1/S (log2)” value in the data set with HeLa Kyoto [1] was -0.368. Moreover, the melting temperature with HeLa Kyoto [2] (cell cycle stage: G1/S) is 50.7 °C; with HeLa Kyoto [2] (cell cycle stage: mitosis) it was 50.5 °C. Also, the “solubility change mitosis (log2)” value with HeLa Kyoto [3] was -0.097. The results for the thermal stability score with HeLa Kyoto [4] (setting [5]) and with HeLa Kyoto [4] (cell cycle stage: mitosis) were -0.0687 and 0.0624, respectively.

For “MDTGVIEGGLNVTLTIRLLMHGKEVGSIIGKKGESVKKMREESGARINISEGNCPERIITLAGPTNAIFKAFAMIIDKLEEDISSSMTNSTAASRPPVTLRLVVPASQCGSLIGKGGCKIKEIRESTGAQVQVAGDMLPNSTERAITIAGIPQSIIECVKQICVVMLETLSQSPPKGVTIPYRPKPSSSPVIFAGGQDRYSTGSDSASFPHTTPSMCLNPDLEGPPLEAYTIQGQYAIPQPDLTKLHQLAMQQSHFPMTHGNTGFSGIESSSPEVKGYWGLDASAQTTSHELTIPNDLIGCIIGRQGAKINEIRQMSGAQIKIANPVEGSTDRQVTITGSAASISLAQYLINVRLSSETGGMGSS [PCBP2]”, the “solubility in G1/S (log2)” value with HeLa Kyoto [1] is 0.222. Also, the melting temperature in the data set with HeLa Kyoto [2] (cell cycle stage: G1/S) was 47.9 °C; in the data set with HeLa Kyoto [2] (cell cycle stage: mitosis), 49.5 °C. In addition, the “solubility change mitosis (log2)” value in the data set on HeLa Kyoto [3] was -0.136. Besides, the thermal stability score turned out to be 1.75 in the data set on HeLa Kyoto [4] (setting [5]) and 7.6 with HeLa Kyoto [4] (cell cycle stage: mitosis).
